# Measured values from patent US20230346934A1.
# Target: PDL1 on DMS 273-PDL1 target cells (UniProt Q9NZQ7)
# Experiment: cell-based or functional assay
# Sequence of UniProt Q9NZQ7 (Q9NZQ7 19-290 limits assumed): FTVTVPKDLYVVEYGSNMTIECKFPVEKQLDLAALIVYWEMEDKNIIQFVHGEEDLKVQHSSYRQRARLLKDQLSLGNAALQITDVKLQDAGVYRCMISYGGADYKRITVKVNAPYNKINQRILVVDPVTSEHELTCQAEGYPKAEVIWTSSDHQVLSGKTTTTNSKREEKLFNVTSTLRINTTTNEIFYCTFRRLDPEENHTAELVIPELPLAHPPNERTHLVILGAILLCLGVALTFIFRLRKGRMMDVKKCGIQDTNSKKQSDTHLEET
row,"cytokine secretion (IL-2, IFNγ; Meso Scale Discovery)",Substance
1,> 10 fold,HA PD1.CD28 chimeric switch receptor
2,> 10 fold,WT PD1.CD28 chimeric switch receptor
